The record followed here is paper PMC2270906, “The CD81 Partner EWI-2wint Inhibits Hepatitis C Virus Entry” (PLoS ONE, 2008).

The target of experiment [1] is HCV E1E2 heterodimers (expressed from recombinant adenovirus Ad/E1E2p7NS2) (hepatitis C virus). The experiment can be described thus: pull-down; E1E2 on mAb H53 beads; Huh-7/pcDNA3.1 cells lysed in Bj/EDTA, ratio of the CD81 band to that in TX/EDTA.
Experiment [2] shares this target. Nature of the experiment: pull-down; E1E2 on mAb H53 beads; Huh-7/EWI-2FLAG^fur cells lysed in Bj/EDTA, ratio of the CD81 band to that in TX/EDTA.
In experiment [3] the target is T1, CD81 (endogenous, human cells) (human (endogenous in Daudi, Ramos, …, UniProt P60033 1-236)).
T1 sequence: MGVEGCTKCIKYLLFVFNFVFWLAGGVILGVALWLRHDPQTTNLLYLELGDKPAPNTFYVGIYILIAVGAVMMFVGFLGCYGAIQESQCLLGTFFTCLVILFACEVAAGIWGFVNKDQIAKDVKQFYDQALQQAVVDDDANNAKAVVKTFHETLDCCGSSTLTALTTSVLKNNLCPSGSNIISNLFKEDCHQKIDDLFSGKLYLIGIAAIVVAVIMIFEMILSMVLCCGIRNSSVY
Nature of the experiment: cell-based or functional assay.

B1: CD81 (endogenous, human cells) (natural protein)
chain: T1 sequence
In the case of B1, the ratio [CD81 band intensity in E1E2 IP in Bj/EDTA buffer]/[CD81 band intensity in E1E2 IP in TX/EDTA buffer] stood at 0.84 in experiment [1] and 0.27 in experiment [2].

B2: EWI-2wint with the C-terminal FLAG epitope, produced by furin cleavage of EWI-2FLAG^fur in Huh-7 cells (domain or fragment)
chain: QAPTSPPRMTVHEGQELALGCLARTSTQKHTHLAVSFGRSVPEAPVGRSTLQEVVGIRSDLAVEAGAPYAERLAAGELRLGKEGTDRYRMVVGGAQAGDAGTYHCTAAEWIQDPDGSWAQIAEKRAVLAHVDVQTLSSQLAVTVGPGERRIGPGEPLELLCNVSGALPPAGRHAAYSVGWEMAPAGAPGPGRLVAQLDTEGVGSLGPGYEGRHIAMEKVASRTYRLRLEAARPGDAGTYRCLAKAYVRGSGTRLREAASARSRPLPVHVREEGVVLEAVAWLAGGTVYRGETASLLCNISVRGGPPGLRLAASWWVERPEDGELSSVPAQLVGGVGQDGVAELGVRPGGGPVSVELVGPRSHRLRLHSLGPEDEGVYHCAPSAWVQHADYSWYQAGSARSGPVTVYPYMHALDTLFVPLLVGTGVALVTGATVLGTITCCFMKRLRKR
For B2, the “inhibition of the infectivity of HCVcc expressing Renilla luciferase on Huh-7 cells expressing EWI-2FLAG^fur (clone A6), relative to Huh-7 cells; the pair that is blocked: HCV glycoproteins with CD81” value in experiment [3] worked out at 80%.
